The values below come from patent US20180155451A1 (published 2018).

Broadly, the Kd is the constant that tells how readily two partners part at equilibrium. The low end stands for higher affinity, the high end for lower affinity.

The target in assay [1] is T1, FcgRIa (human, UniProt P12314 16-292).
T1 construct: extracellular domain; also called FcγRIa; FcγRI; not shown: C-terminal His tag
The experiment in a line: SPR (Biacore), antibody captured on chip, FcgR as analyte. On the procedure: (§1) The variants described above were assessed for their binding to FcγR according to the method described in Reference Example 8.
(§2) Analysis of interaction between obj ective antibody and the FcγR was carried out using Biacore T100 (GE Healthcare), Biacore T200, Biacore A100, and Biacore 4000. HBS-EP+ (GE Healthcare) was used as the running buffer, and the measurement temperature was set to 25° C. Chips produced by immobilizing the antigen peptide by the amine coupling method to a Series S sensor Chip CM5 (GE Healthcare), chips produced by allowing preliminarily biotinylated antigen peptides to interact with and immobilize onto a Series S Sensor Chip SA (certified) (GE Healthcare), chips produced by immobilizing Protein L (ACTIGEN, BioVision) to Series S Sencor Chip CM5 (GE Healthcare), or chips produced by immobilizing Protein A/G (Thermo Scientific) to Series S Sencor Chip CM5 (GE Healthcare) were used. Antibodies of interest were captured onto these chips, and allowed to interact to each FcγR diluted with running buffer. To regenerate and repeatedly use the chip, the antibodies captured onto the chip were washed off by reacting 10 mM glycine-HCl, pH 1.5.
On the technique in general: SPR reads the build-up and loss of mass on a sensor chip optically.

In assay [2] the target is T2, FcgRIIaR (human, UniProt P12318 34-217).
T2 construct: extracellular domain; R131 allotype; also called FcγRIIa R; FcgRIIa type R; not shown: C-terminal His tag
T2 sequence (looked up): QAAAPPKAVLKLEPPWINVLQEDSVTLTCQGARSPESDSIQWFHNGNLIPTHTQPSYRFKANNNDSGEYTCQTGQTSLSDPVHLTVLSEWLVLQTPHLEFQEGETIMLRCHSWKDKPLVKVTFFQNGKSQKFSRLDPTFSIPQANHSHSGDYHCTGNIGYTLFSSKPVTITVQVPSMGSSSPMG
The assay is described as above. On the procedure:
as §1, §2

Assay [3] deals with T3, FcgRIIaH (human, UniProt P12318 34-217).
T3 construct: extracellular domain; H131 allotype; also called FcγRIIa H; FcgRIIa type H; not shown: C-terminal His tag
T3 sequence (looked up): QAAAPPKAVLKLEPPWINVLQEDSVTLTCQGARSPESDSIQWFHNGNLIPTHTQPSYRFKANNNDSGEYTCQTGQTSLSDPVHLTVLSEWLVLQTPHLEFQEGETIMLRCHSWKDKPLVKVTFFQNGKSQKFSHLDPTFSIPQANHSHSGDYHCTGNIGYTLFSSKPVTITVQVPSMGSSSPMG
Described as above. On the procedure:
as §1, §2

The target in assay [4] is T4, FcgRIIb (human, UniProt P31994 43-217).
T4 construct: extracellular domain; also called FcγRIIb; CD32B; not shown: C-terminal His tag
T4 sequence (looked up): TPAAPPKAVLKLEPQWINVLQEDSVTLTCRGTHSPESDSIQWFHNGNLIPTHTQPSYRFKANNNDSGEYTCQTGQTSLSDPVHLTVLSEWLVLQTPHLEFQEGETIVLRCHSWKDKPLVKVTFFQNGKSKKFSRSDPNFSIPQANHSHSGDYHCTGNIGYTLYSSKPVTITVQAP
Described as above. As for the experimental part:
as §1, §2

The target in assay [5] is T5, FcgRIIIaF (human, UniProt P08637 17-208).
T5 construct: extracellular domain; F158 allotype; also called FcγRIIIa F; not shown: C-terminal His tag
Described as above. On the procedure: as §1, §2

The target in assay [6] is T6, FcgRIIIaV (human, UniProt P08637 17-208).
T6 construct: extracellular domain; V158 allotype; also called FcγRIIIa V; not shown: C-terminal His tag
Described as above. On the procedure: as §1, §2

Assay [7] deals with T2, FcgRIIaR. Kind of assay: SPR (Biacore); KD of H240-Kn120/H240-Hl068/L73-k0 divided by KD of the sample. On the procedure: as §1, §2
Assay [8] addresses T3, FcgRIIaH. The assay is described as above. On the procedure: as §1, §2
Assay [9] concerns the target T4, FcgRIIb. The description is as above. On the procedure: as §1, §2
Assay [10] deals with T5, FcgRIIIaF. Described as above. On the procedure: as §1, §2
Assay [11] has as its target T6, FcgRIIIaV. The assay is described as above. As for the experimental part: as §1, §2

T6 sequence (P08637 17-208 F176V limits assumed): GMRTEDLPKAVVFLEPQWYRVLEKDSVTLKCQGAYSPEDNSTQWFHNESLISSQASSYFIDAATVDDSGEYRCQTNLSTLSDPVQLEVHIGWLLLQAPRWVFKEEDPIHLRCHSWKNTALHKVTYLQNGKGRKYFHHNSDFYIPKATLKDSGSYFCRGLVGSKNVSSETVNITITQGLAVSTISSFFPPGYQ
T5 sequence (P08637 17-208): as the sequence (P08637 17-208 F176V limits assumed) above, with V160F counted along it
T1 sequence (P12314 16-292): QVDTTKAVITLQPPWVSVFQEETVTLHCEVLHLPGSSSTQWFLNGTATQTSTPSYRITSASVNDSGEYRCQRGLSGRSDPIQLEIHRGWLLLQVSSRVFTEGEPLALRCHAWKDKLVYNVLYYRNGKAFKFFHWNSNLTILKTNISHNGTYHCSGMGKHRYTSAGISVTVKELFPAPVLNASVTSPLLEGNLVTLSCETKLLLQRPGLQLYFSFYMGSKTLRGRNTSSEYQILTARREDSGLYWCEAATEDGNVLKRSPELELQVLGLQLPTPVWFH

B1: H240-Kn179/H240-Hl089/L73-k0 (antibody, human IgG1, kappa)
heavy 1: QDQLVQSGAEVKKPGASVKVSCKASGFNIKDTYIQWVRQAPGQGLEWMGRIDPLRKQTKYREKFEGRVTITADTSTNTAYMELSSLRSEDTAVYYCVRSGREFDYWGQGTLVTVSSASTKGPSVFPLAPSSKSTSGGTAALGCLVKDYFPEPVTVSWNSGALTSGVHTFPAVLQSSGLYSLSSVVTVPSSSLGTQTYICNVNHKPSNTKVDKKVEPKSCDKTHTCPPCPAPEYYWGPMVFLFPPKPKDTLMISRTPEVTCVVVDVSDEDPEVKFNWYVDGVEVHNAKTKPREKQYNATYRVVSVLTVLHQDWLNGKEYKCKVSNKDLPAPIEKTISKAKGQPREPQVCTLPPSRDELTKNQVSLWCLVKGFYPSDIAVEWESNGQPENNYKTTPPVLDSDGSFFLYSKLTVDKSRWQQGNVFSCSVMHEALHNHYTQKSLSLSP
heavy 2: QDQLVQSGAEVKKPGASVKVSCKASGFNIKDTYIQWVRQAPGQGLEWMGRIDPLRKQTKYREKFEGRVTITADTSTNTAYMELSSLRSEDTAVYYCVRSGREFDYWGQGTLVTVSSASTKGPSVFPLAPSSKSTSGGTAALGCLVKDYFPEPVTVSWNSGALTSGVHTFPAVLQSSGLYSLSSVVTVPSSSLGTQTYICNVNHKPSNTKVDKKVEPKSCDKTHTCPPCPAPELLTGPSVFLFPPKPKDTLMISRTPEVTCVVVDVSHEEPEVKFNWYVDGVEVHNAKTKPREEQYNSTYRVVSVLTVLHQDWLNGKEYKCKVSNDALPKPIEETISKAKGQPREPQVYTLPPSRCELTKNQVSLSCAVKGFYPSDIAVEWESNGQPENNYKTTPPVLDSDGSFFLVSKLTVDKSRWQQGNVFSCSVMHEALHNHYTQKSLSLSP
light: DIQMTQSPSSLSASVGDRVTITCRASQDIHKYIAWYQQKPGQAPRLLIQYTSTLQPGVPSRFSGSGSGTDYTFTISSLQPEDIATYYCLQYEQLRTFGGGTKVEIKRTVAAPSVFIFPPSDEQLKSGTASVVCLLNNFYPREAKVQWKVDNALQSGNSQESVTEQDSKDSTYSLSSTLTLSKADYEKHKVYACEVTHQGLSSPVTKSFNRGEC
notes: Heterodimerized anti-epiregulin antibody; E294R in one chain, G236T in the other
As to B1, the Kd came out at 0.46 nM in assay [1]; 18 nM in [2]; 47 nM in assay [3]; 400 nM in assay [4]; 39 nM in assay [5]; 18 nM in assay [6]. Also, the “Relative KD” value in assay [7] was found to be 1.1; in assay [8], 0.9; in [9] it was 0.4; in assay [10], 0.1; in assay [11], 0.

B2: H240-Kn180/H240-Hl089/L73-k0 (antibody, human IgG1, kappa)
heavy 1: QDQLVQSGAEVKKPGASVKVSCKASGFNIKDTYIQWVRQAPGQGLEWMGRIDPLRKQTKYREKFEGRVTITADTSTNTAYMELSSLRSEDTAVYYCVRSGREFDYWGQGTLVTVSSASTKGPSVFPLAPSSKSTSGGTAALGCLVKDYFPEPVTVSWNSGALTSGVHTFPAVLQSSGLYSLSSVVTVPSSSLGTQTYICNVNHKPSNTKVDKKVEPKSCDKTHTCPPCPAPEYYWGPMVFLFPPKPKDTLMISRTPEVTCVVVDVSDEDPEVKFNWYVDGVEVHNAKTKPRERQYNATYRVVSVLTVLHQDWLNGKEYKCKVSNKDLPAPIEKTISKAKGQPREPQVCTLPPSRDELTKNQVSLWCLVKGFYPSDIAVEWESNGQPENNYKTTPPVLDSDGSFFLYSKLTVDKSRWQQGNVFSCSVMHEALHNHYTQKSLSLSP
heavy 2: QDQLVQSGAEVKKPGASVKVSCKASGFNIKDTYIQWVRQAPGQGLEWMGRIDPLRKQTKYREKFEGRVTITADTSTNTAYMELSSLRSEDTAVYYCVRSGREFDYWGQGTLVTVSSASTKGPSVFPLAPSSKSTSGGTAALGCLVKDYFPEPVTVSWNSGALTSGVHTFPAVLQSSGLYSLSSVVTVPSSSLGTQTYICNVNHKPSNTKVDKKVEPKSCDKTHTCPPCPAPELLTGPSVFLFPPKPKDTLMISRTPEVTCVVVDVSHEEPEVKFNWYVDGVEVHNAKTKPREEQYNSTYRVVSVLTVLHQDWLNGKEYKCKVSNDALPKPIEETISKAKGQPREPQVYTLPPSRCELTKNQVSLSCAVKGFYPSDIAVEWESNGQPENNYKTTPPVLDSDGSFFLVSKLTVDKSRWQQGNVFSCSVMHEALHNHYTQKSLSLSP
light: DIQMTQSPSSLSASVGDRVTITCRASQDIHKYIAWYQQKPGQAPRLLIQYTSTLQPGVPSRFSGSGSGTDYTFTISSLQPEDIATYYCLQYEQLRTFGGGTKVEIKRTVAAPSVFIFPPSDEQLKSGTASVVCLLNNFYPREAKVQWKVDNALQSGNSQESVTEQDSKDSTYSLSSTLTLSKADYEKHKVYACEVTHQGLSSPVTKSFNRGEC
notes: Heterodimerized anti-epiregulin antibody; E294K in one chain, G236T in the other
B2: the Kd is 0.27 nM in assay [1]; 16 nM in assay [2]; 38 nM in assay [3]; 380 nM in assay [4]; 24 nM in [5]; 14 nM in assay [6]. In addition, the “Relative KD” value was 1.3 in assay [7]; 1.1 in [8]; 0.4 in [9]; 0.1 in assay [10]; 0 in [11].
